Experimental findings from PMC10577314 (Frontiers in Cell and Developmental Biology, 2023) are described below.

This experiment deals with T1, C-terminal half of Sec8 (Sec8c, aa544–975) (rat, UniProt Q62824 544-975).
T1 construct: Sec8 (exocyst subunit), Rattus norvegicus, C-terminal half, aa544–975; ends with the ITTV motif; Used in ITC and SEC under the plain name Sec8c; source: E. coli BL21-DE3, purified (Ni-HiTrap HP; Superdex 200)
Nature of the experiment: ITC; 300 µM SAP102 truncation in the syringe titrated into 30 µM Sec8c (or Sec8c-Δ958–971) in the cell; 20 mM HEPES pH 7.5, 100 mM NaCl, 1 mM DTT; one-set-of-sites model; control titration (protein to buffer) subtracted. Conditions: both partners purified. On the technique in general: Isothermal titration calorimetry measures the heat released or taken up as one component is titrated into another.

T1 sequence (Q62824 544-975): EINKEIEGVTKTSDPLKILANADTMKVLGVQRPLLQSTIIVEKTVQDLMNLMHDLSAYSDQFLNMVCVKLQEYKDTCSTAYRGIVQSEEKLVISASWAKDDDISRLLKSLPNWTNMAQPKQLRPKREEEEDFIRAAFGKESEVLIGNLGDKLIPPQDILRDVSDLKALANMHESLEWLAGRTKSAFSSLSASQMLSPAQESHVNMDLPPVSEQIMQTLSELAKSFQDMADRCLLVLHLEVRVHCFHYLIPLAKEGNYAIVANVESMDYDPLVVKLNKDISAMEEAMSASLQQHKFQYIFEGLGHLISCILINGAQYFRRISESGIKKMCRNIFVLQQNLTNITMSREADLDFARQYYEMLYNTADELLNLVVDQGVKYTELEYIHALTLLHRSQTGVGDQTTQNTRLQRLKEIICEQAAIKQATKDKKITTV

B1: SAP102 PDZ1-PDZ2 (aa144–331) (domain or fragment, rat, UniProt Q62936 144-331, looked up)
chain: MFKYEEIVLERGNSGLGFSIAGGIDNPHVPDDPGIFITKIIPGGAAAMDGRLGVNDCVLRVNEVDVSEVVHSRAVEALKEAGPVVRLVVRRRQPPPETIMEVNLLKGPKGLGFSIAGGIGNQHIPGDNSIYITKIIEGGAAQKDGRLQIGDRLLAVNNTNLQDVRHEEAVASLKNTSDMVYLKVAKPG
notes: also called tandem PDZ1-PDZ2; source: E. coli BL21-DE3, purified (Ni-HiTrap HP, SENP2 cleavage, Superdex 200); not shown: His6-SUMO, N-terminal, cleaved
What is called Kd is the concentration at which binding is half-saturated. A lower Kd goes with a tighter complex. B1 yielded a Kd of roughly 6 µM.

B2: SAP102 PDZ2 (aa241–331) (domain or fragment, rat, UniProt Q62936 241-331, looked up)
chain: TIMEVNLLKGPKGLGFSIAGGIGNQHIPGDNSIYITKIIEGGAAQKDGRLQIGDRLLAVNNTNLQDVRHEEAVASLKNTSDMVYLKVAKPG
notes: source: E. coli BL21-DE3, purified (Ni-HiTrap HP, SENP2 cleavage, Superdex 200); not shown: His6-SUMO, N-terminal, cleaved
B2 gave a Kd of roughly 4 µM.
